For orientation: Kd means the concentration at which binding is half-saturated.

Data on 13 molecules can be found in article PMC12096823, “SloR-SRE binding to the S. mutans mntH promoter is cooperative”.

The target in data set [1] is T1, SloR (Streptococcus mutans UA159?) (UniProt I6L923).
T1 sequence: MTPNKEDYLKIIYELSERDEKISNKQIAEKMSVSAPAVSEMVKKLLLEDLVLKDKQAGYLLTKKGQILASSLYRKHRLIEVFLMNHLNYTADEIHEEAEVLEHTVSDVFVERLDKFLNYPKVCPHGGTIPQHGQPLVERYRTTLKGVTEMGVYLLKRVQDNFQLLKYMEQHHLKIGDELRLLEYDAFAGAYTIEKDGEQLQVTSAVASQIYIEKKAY
Kind of data set: EMSA. Conditions: BLI: PBS pH 7.2, 0.1% Tween-20, 100 uM MnCl2, 30 C; EMSA: 60-200 nM SloR, 16 uL, 12% native gel, buffer as cited; footprinting: 8.4 mM NaH2PO4, 11.6 mM ….

Data set [2] addresses T1, SloR (Streptococcus mutans UA159?). Kind of data set: footprinting. Conditions: BLI: PBS pH 7.2, 0.1% Tween-20, 100 uM MnCl2, 30 C; EMSA: 60-200 nM SloR, 16 uL, 12% native gel, buffer as cited; footprinting: 8.4 mM NaH2PO4, 11.6 mM ….
Data set [3] addresses T2, SloR (UniProt I6L923 1-217).
T2 sequence: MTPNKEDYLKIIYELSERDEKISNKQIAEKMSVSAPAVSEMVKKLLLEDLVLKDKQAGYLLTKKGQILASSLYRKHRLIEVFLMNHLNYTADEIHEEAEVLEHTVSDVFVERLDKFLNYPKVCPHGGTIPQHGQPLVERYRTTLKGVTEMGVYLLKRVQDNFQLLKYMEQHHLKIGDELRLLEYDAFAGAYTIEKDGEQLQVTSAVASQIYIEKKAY
The data set can be described thus: EMSA; 60 nM SloR; two band shifts, intensity 1.3 and 0.03 AU; BLI: PBS pH 7.2, 0.1% Tween-20, 100 uM MnCl2, 30 C; EMSA: 60-200 nM SloR, 16 uL, 12% native gel, buffer as cited; footprinting: 8.4 mM NaH2PO4, 11.6 mM Na2HPO4, 50 mM NaCl, 5 mM MgCl2, 10 ug/mL BSA, 200 ug/mL salmon sperm DNA, 7.5 uM MnCl2, 30 C. Conditions: protein: recombinant; tags: native (untagged) SloR purified for EMSA and footprinting; chain copies: 2; label: 5' 32P; blunt. (Mobility shift assays separate free from complexed probe on a gel.)

Data set [4] addresses T2, SloR. Kind of data set: EMSA; 60 nM SloR; BLI: PBS pH 7.2, 0.1% Tween-20, 100 uM MnCl2, 30 C; EMSA: 60-200 nM SloR, 16 uL, 12% native gel, buffer as cited; footprinting: 8.4 mM NaH2PO4, 11.6 mM Na2HPO4, 50 mM NaCl, 5 mM MgCl2, 10 ug/mL BSA, 200 ug/mL salmon sperm DNA, 7.5 uM MnCl2, 30 C. Conditions: protein: recombinant, tags: native (untagged) SloR purified for EMSA and footprinting, chain copies: 2, blunt.

Data set [5] deals with T3, SloR (BLI preparation) (UniProt I6L923 1-217).
T3 sequence: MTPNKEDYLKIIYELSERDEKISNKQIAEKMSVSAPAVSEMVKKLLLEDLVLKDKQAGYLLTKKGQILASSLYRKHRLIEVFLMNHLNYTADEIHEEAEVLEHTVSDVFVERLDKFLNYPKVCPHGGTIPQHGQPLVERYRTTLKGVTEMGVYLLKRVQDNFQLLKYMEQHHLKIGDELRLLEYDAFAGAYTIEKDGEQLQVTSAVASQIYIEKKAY
Kind of data set: BLI; 100 uM MnCl2; DNA up to 20 uM; BLI: PBS pH 7.2, 0.1% Tween-20, 100 uM MnCl2, 30 C; EMSA: 60-200 nM SloR, 16 uL, 12% native gel, buffer as cited; footprinting: 8.4 mM NaH2PO4, 11.6 mM Na2HPO4, 50 mM NaCl, 5 mM MgCl2, 10 ug/mL BSA, 200 ug/mL salmon sperm DNA, 7.5 uM MnCl2, 30 C. Particulars: protein: recombinant; tags: immobilized on NTA biosensor; chain copies: 2; blunt. For orientation: Biolayer interferometry detects binding as a change in optical thickness at a sensor tip.

Data set [6] has as its target T3, SloR (BLI preparation). The data set can be described thus: BLI; 100 uM MnCl2; BLI: PBS pH 7.2, 0.1% Tween-20, 100 uM MnCl2, 30 C; EMSA: 60-200 nM SloR, 16 uL, 12% native gel, buffer as cited; footprinting: 8.4 mM NaH2PO4, 11.6 mM Na2HPO4, 50 mM NaCl, 5 mM MgCl2, 10 ug/mL BSA, 200 ug/mL salmon sperm DNA, 7.5 uM MnCl2, 30 C. Conditions: protein: recombinant; tags: immobilized on NTA biosensor; chain copies: 2; blunt.

In data set [7] the target is T2, SloR. The data set can be described thus: EMSA; BLI: PBS pH 7.2, 0.1% Tween-20, 100 uM MnCl2, 30 C; EMSA: 60-200 nM SloR, 16 uL, 12% native gel, buffer as cited; footprinting: 8.4 mM NaH2PO4, 11.6 mM Na2HPO4, 50 mM NaCl, 5 mM MgCl2, 10 ug/mL BSA, 200 ug/mL salmon sperm DNA, 7.5 uM MnCl2, 30 C. Conditions: protein: recombinant; tags: native (untagged) SloR purified for EMSA and footprinting; chain copies: 2; label: 5' 32P; blunt.

Data set [8] deals with T3, SloR (BLI preparation). The data set can be described thus: BLI; 100 uM MnCl2; Kd only in figure; BLI: PBS pH 7.2, 0.1% Tween-20, 100 uM MnCl2, 30 C; EMSA: 60-200 nM SloR, 16 uL, 12% native gel, buffer as cited; footprinting: 8.4 mM NaH2PO4, 11.6 mM Na2HPO4, 50 mM NaCl, 5 mM MgCl2, 10 ug/mL BSA, 200 ug/mL salmon sperm DNA, 7.5 uM MnCl2, 30 C. Conditions: protein: recombinant; tags: immobilized on NTA biosensor; chain copies: 2; label: 5' 32P in EMSA; blunt.

On to “GCATACTTAACATATGCTGTTTTTTATGCTATAATGCAATTAACCCAATTATATTAGAAAAGAGATTTTCAAAATGAAAACTCATCCAAAAAAGCAATCACTCAGCGAGGT (double strand) [mntH 111-bp probe (-75 to +36 of coding)]”, for which, in data set [1], the binding result is recorded as “no binding”.

Consider “GATTGTTTAGACATCTCTGATTAATTTTCCATAATCTCTATTGTGTTTTATACTGTCAGTAATTCTTACAAACTCTTTATATTCAGTAATAATAGGTACACCTTTTTTAATTTTTAAGCATACTTAACATATGCTGTTTTTTATGCTATAATGCAATTAACCCAATTATATTAGAAAAGAGATTTTCAAAATGAAAACTCATCCAAAAAAGCAATCACTCAGCGAGGTCAATCAGAGCGTTCGTGTTCCTAAAAATGCCTCTTTTTTAACAACTTTAAGAGCTTTTTTAGG (double strand) [mntH 291-bp footprint amplicon]”, for which, in data set [2], the binding result is given as “binds”.

B1: mntH.100.WT (dsDNA)
DNA 1: TACTGTCAGTAATTCTTACAAACTCTTTATATTCAGTAATAATAGGTACACCTTTTTTAATTTTTAAGCATACTTAACATATGCTGTTTTTTATGCTATA
DNA 2: TATAGCATAAAAAACAGCATATGTTAAGTATGCTTAAAAATTAAAAAAGGTGTACCTATTATTACTGAATATAAAGAGTTTGTAAGAATTACTGACAGTA
Take B1: the binding result with SloR [3] is “binds”.

B2: mntH.100.CC.CT (SRE1+SRE2 mutant) (dsDNA)
DNA 1: TACTGTCAGTAATTCTTACAAACTCTTTATATTCAGTAATAATCTGTACACCTTTTTTAATTTTTCCGCATACTTAACATATGCTGTTTTTTATGCTATA
DNA 2: TATAGCATAAAAAACAGCATATGTTAAGTATGCGGAAAAATTAAAAAAGGTGTACAGATTATTACTGAATATAAAGAGTTTGTAAGAATTACTGACAGTA
For the molecule B2, the binding result in the data set with SloR [4] (label: 5' 32P) is “no binding”.

B3: mntH.22.SRE2.WT (dsDNA)
DNA 1: AATAATAGGTACACCTTTTTTA
DNA 2: TAAAAAAGGTGTACCTATTATT
With B3, the binding result with SloR (BLI preparation) [5] was “no binding”.

B4: mntH.90.WT (dsDNA)
DNA 1: GTAATTCTTACAAACTCTTTATATTCAGTAATAATAGGTACACCTTTTTTAATTTTTAAGCATACTTAACATATGCTGTTTTTTATGCTA
DNA 2: TAGCATAAAAAACAGCATATGTTAAGTATGCTTAAAAATTAAAAAAGGTGTACCTATTATTACTGAATATAAAGAGTTTGTAAGAATTAC
Regarding B4, the Kd with SloR (BLI preparation) [6] was approximately 33 nM.

B5: mntH.22.SRE1.w10.spcr (spacer variant) (dsDNA)
DNA 1: ATTTTTAACCCAATTTAACATA
DNA 2: TATGTTAAATTGGGTTAAAAAT
With B5, in the data set with SloR [7], the binding result was “no binding”.

B6: mntH.22.SRE1.10IR (SRE1 spacer with -10 SRE IRs) (dsDNA)
DNA 1: GCAATTAAGCATACTATATTAG
DNA 2: CTAATATAGTATGCTTAATTGC
In the case of B6, the binding result in the data set with SloR [7] is recorded as “no binding”.

B7: mntH.22.SRE1.WT (dsDNA)
DNA 1: ATTTTTAAGCATACTTAACATA
DNA 2: TATGTTAAGTATGCTTAAAAAT
Consider B7, for which the binding result with SloR [4] (label: 5' 32P in EMSA) and with SloR (BLI preparation) [8] was “binds” each time.

B8: mntH 100-bp deletion amplicon (dsDNA)
DNA 1: AGGTACACCTTTTTTAATTTTTAAGCATACTTAACATATGCTGTTTTTTATGCTATAATGCAATTAACCCAATTATATTAGAAAAGAGATTTTCAAAATG
DNA 2: CATTTTGAAAATCTCTTTTCTAATATAATTGGGTTAATTGCATTATAGCATAAAAAACAGCATATGTTAAGTATGCTTAAAAATTAAAAAAGGTGTACCT
With B8, the binding result with SloR [7] was “binds”.

B9: mntH 159-bp promoter probe (dsDNA)
DNA 1: TCTCTATTGTGTTTTATACTGTCAGTAATTCTTACAAACTCTTTATATTCAGTAATAATAGGTACACCTTTTTTAATTTTTAAGCATACTTAACATATGCTGTTTTTTATGCTATAATGCAATTAACCCAATTATATTAGAAAAGAGATTTTCAAAATG
DNA 2: CATTTTGAAAATCTCTTTTCTAATATAATTGGGTTAATTGCATTATAGCATAAAAAACAGCATATGTTAAGTATGCTTAAAAATTAAAAAAGGTGTACCTATTATTACTGAATATAAAGAGTTTGTAAGAATTACTGACAGTATAAAACACAATAGAGA
On to B9, for which the binding result with SloR [7] was “binds”.

B10: mntH.22.SRE1.CC (left IR mutant) (dsDNA)
DNA 1: ATTTTTCCGCATACTTAACATA
DNA 2: TATGTTAAGTATGCGGAAAAAT
Regarding B10, in the data set with SloR [7], the binding result was “no binding”.

B11: sloA.72.WT (dsDNA)
DNA 1: AGCCTTAATTAATGTAGATTATATTTTTAATTGAACTGAATTAAAAATATAATCCAATATAATGAATATTTT
DNA 2: AAAATATTCATTATATTGGATTATATTTTTAATTCAGTTCAATTAAAAATATAATCTACATTAATTAAGGCT
For the molecule B11, in the data set with SloR (BLI preparation) [6], the Kd is approximately 31 nM.
